Target: Saccharomyces cerevisiae Asf1 (2–169) (Saccharomyces cerevisiae, UniProt P32447 2-169)
Assay: ITC

Chain of Saccharomyces cerevisiae Asf1 (2–169) (P32447 2-169): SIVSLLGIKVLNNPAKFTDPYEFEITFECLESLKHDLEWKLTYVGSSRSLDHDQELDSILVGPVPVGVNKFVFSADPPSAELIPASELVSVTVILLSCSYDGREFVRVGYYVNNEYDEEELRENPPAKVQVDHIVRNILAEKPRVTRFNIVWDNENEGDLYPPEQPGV

Binder: LAITMLKPRKKAKAL [Rtt109^419–433 peptide]
- Kd: 7.78 ± 1.23 µM
